Data published in patent publication US20240182536A1 (MURAL ONCOLOGY, published 2024).

B1: IL-18 variant G3P, E6G, D54T, S55W, N91E, R104K (ligand)
chain: YFPKLGSKLSVIRNLNDQVLFIDQGNRPLFEDMTDSDMRDNAPRTIFIISMYKTWQPRGMAVTISVKSEKISTLSSENKIISFKEMNPPDEIKDTKSDIIFFQKSVPGHDNKMQFESSSYEGYFLASEKERDLFKLILKKEDELGDRSIMFTVQNED
B2: IL-18 variant G3Y, E6S, K53S, D54W, S55L, N91I (ligand)
chain: YFYKLSSKLSVIRNLNDQVLFIDQGNRPLFEDMTDSDMRDNAPRTIFIISMYSWLQPRGMAVTISVKSEKISTLSSENKIISFKEMNPPDIIKDTKSDIIFFQRSVPGHDNKMQFESSSYEGYFLASEKERDLFKLILKKEDELGDRSIMFTVQNED
B3: IL-18 variant G3R, L5W, E6H, D54Y, Q56H, N91R (ligand)
chain: YFRKWHSKLSVIRNLNDQVLFIDQGNRPLFEDMTDSDMRDNAPRTIFIISMYKYSHPRGMAVTISVKSEKISTLSSENKIISFKEMNPPDRIKDTKSDIIFFQRSVPGHDNKMQFESSSYEGYFLASEKERDLFKLILKKEDELGDRSIMFTVQNED
B4: IL-18 variant G3Q, E6S, S55V, T63A, N91T (ligand)
chain: YFQKLSSKLSVIRNLNDQVLFIDQGNRPLFEDMTDSDMRDNAPRTIFIISMYKDVQPRGMAVAISVKSEKISTLSSENKIISFKEMNPPDTIKDTKSDIIFFQRSVPGHDNKMQFESSSYEGYFLASEKERDLFKLILKKEDELGDRSIMFTVQNED
B5: IL-18 variant G3P, E6K, K53M, D54W, S55N, T63S, N91I (ligand)
chain: YFPKLKSKLSVIRNLNDQVLFIDQGNRPLFEDMTDSDMRDNAPRTIFIISMYMWNQPRGMAVSISVKSEKISTLSSENKIISFKEMNPPDIIKDTKSDIIFFQRSVPGHDNKMQFESSSYEGYFLASEKERDLFKLILKKEDELGDRSIMFTVQNED
B6: IL-18 variant G3P, E6V, K53A, D54W, S55P, T63S, N91L, R104K, Q154R (ligand)
chain: YFPKLVSKLSVIRNLNDQVLFIDQGNRPLFEDMTDSDMRDNAPRTIFIISMYAWPQPRGMAVSISVKSEKISTLSSENKIISFKEMNPPDLIKDTKSDIIFFQKSVPGHDNKMQFESSSYEGYFLASEKERDLFKLILKKEDELGDRSIMFTVRNED
B7: IL-18 variant G3S, E6Q, K53S, D54Y, S55H, N91L, R104Q (ligand)
chain: YFSKLQSKLSVIRNLNDQVLFIDQGNRPLFEDMTDSDMRDNAPRTIFIISMYSYHQPRGMAVTISVKSEKISTLSSENKIISFKEMNPPDLIKDTKSDIIFFQQSVPGHDNKMQFESSSYEGYFLASEKERDLFKLILKKEDELGDRSIMFTVQNED
B8: IL-18 variant G3N, E6S, K53Q, D54W, S55R, N91T, R104T (ligand)
chain: YFNKLSSKLSVIRNLNDQVLFIDQGNRPLFEDMTDSDMRDNAPRTIFIISMYQWRQPRGMAVTISVKSEKISTLSSENKIISFKEMNPPDTIKDTKSDIIFFQTSVPGHDNKMQFESSSYEGYFLASEKERDLFKLILKKEDELGDRSIMFTVQNED
B9: IL-18 variant G3Y, E6S, K53S, D54W, S55L, T63S, N91I (ligand)
chain: YFYKLSSKLSVIRNLNDQVLFIDQGNRPLFEDMTDSDMRDNAPRTIFIISMYSWLQPRGMAVSISVKSEKISTLSSENKIISFKEMNPPDIIKDTKSDIIFFQRSVPGHDNKMQFESSSYEGYFLASEKERDLFKLILKKEDELGDRSIMFTVQNED
B10: IL-18 variant G3Q, E6N (ligand)
chain: YFQKLNSKLSVIRNLNDQVLFIDQGNRPLFEDMTDSDMRDNAPRTIFIISMYKDSQPRGMAVTISVKSEKISTLSSENKIISFKEMNPPDNIKDTKSDIIFFQRSVPGHDNKMQFESSSYEGYFLASEKERDLFKLILKKEDELGDRSIMFTVQNED
B11: IL-18 variant G3T, E6Q, K53G, D54G, S55H, T63A, S65T, N91R, R104Q (ligand)
chain: YFTKLQSKLSVIRNLNDQVLFIDQGNRPLFEDMTDSDMRDNAPRTIFIISMYGGHQPRGMAVAITVKSEKISTLSSENKIISFKEMNPPDRIKDTKSDIIFFQQSVPGHDNKMQFESSSYEGYFLASEKERDLFKLILKKEDELGDRSIMFTVQNED
B12: IL-18 variant G3P, E6R, D54W, S55Q, T63S, N91T, R104H (ligand)
chain: YFPKLRSKLSVIRNLNDQVLFIDQGNRPLFEDMTDSDMRDNAPRTIFIISMYKWQQPRGMAVSISVKSEKISTLSSENKIISFKEMNPPDTIKDTKSDIIFFQHSVPGHDNKMQFESSSYEGYFLASEKERDLFKLILKKEDELGDRSIMFTVQNED

What was measured:
[1] = molecular target: T1, IL-18 receptors on HEK-Blue IL-18 reporter cells (UniProt Q13478 19-541; O95256 20-599, limits assumed); experiment: cell-based or functional assay
T1 sequence (looked up) 1: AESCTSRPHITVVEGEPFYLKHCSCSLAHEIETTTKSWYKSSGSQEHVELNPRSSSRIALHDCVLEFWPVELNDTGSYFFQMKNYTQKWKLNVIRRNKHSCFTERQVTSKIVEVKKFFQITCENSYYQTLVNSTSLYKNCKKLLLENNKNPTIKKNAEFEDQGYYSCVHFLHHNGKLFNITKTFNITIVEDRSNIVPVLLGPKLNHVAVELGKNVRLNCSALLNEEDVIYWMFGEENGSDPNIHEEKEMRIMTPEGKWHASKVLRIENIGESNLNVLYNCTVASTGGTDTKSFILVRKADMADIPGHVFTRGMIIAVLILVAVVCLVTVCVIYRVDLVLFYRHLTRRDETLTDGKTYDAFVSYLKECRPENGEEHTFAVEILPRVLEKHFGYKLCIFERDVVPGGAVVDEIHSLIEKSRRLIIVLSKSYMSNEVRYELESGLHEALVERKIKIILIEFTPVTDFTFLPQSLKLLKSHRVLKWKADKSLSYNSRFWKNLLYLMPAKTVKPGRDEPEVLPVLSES
T1 sequence (looked up) 2: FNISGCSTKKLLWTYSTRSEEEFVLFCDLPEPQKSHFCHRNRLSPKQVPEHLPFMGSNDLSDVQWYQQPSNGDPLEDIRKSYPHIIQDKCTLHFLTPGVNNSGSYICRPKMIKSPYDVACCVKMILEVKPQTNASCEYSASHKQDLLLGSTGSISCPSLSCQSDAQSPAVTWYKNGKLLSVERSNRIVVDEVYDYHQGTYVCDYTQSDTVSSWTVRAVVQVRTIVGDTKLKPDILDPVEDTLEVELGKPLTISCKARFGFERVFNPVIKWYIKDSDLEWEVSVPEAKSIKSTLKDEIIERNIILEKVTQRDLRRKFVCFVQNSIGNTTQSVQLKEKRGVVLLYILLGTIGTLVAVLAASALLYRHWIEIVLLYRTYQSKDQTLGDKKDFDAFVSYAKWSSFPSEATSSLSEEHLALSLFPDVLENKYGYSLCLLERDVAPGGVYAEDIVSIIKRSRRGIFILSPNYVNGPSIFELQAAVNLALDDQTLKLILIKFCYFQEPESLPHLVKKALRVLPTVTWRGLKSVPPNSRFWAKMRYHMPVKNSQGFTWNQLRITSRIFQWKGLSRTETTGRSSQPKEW

[2] = molecular target: T2, IL-18 binding protein (IL-18BP) (UniProt O95998 31-194); experiment: cell-based or functional assay
T2 sequence (looked up): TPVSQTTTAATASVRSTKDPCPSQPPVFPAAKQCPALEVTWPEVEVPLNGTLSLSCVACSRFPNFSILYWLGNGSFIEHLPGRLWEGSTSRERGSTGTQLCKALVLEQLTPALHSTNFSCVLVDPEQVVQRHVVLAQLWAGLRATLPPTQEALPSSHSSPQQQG

| Binder | Activity, No BP, DF-100000 [1] | Activity, No BP, DF-500000 [1] | Activity, No BP, DF-2500000 [1] | Activity, +100 nM BP, DF-1000002 [2] | Activity, +100 nM BP, DF-5000003 [2] | Activity, +100 nM BP, DF-25000004 [2] | Ratio (-BP/+BP), DF-1000005 [2] | Ratio (-BP/+BP), DF-5000006 [2] | Ratio (-BP/+BP), DF-25000007 [2] |
| --- | --- | --- | --- | --- | --- | --- | --- | --- | --- |
| B1 | 0.35 | 0.13 | 0.07 | 0.33 | 0.12 | 0.08 | 1.09 | 1.06 | 0.97 |
| B2 | 0.7 | 0.24 | 0.15 | 0.78 | 0.26 | 0.12 | 0.9 | 0.95 | 1.22 |
| B3 | 0.39 | 0.12 | 0.08 | 0.32 | 0.11 | 0.08 | 1.25 | 1.09 | 1.01 |
| B4 | 1.94 | 1.84 | 1.61 | 1.15 | 0.46 | 0.15 | 1.68 | 4.03 | 10.7 |
| B5 | 0.64 | 0.21 | 0.08 | 0.65 | 0.2 | 0.09 | 0.98 | 1.07 | 0.91 |
| B6 | 0.56 | 0.18 | 0.08 | 0.6 | 0.19 | 0.09 | 0.94 | 0.96 | 0.91 |
| B7 | 0.49 | 0.16 | 0.08 | 0.51 | 0.2 | 0.1 | 0.95 | 0.81 | 0.88 |
| B8 | 0.46 | 0.14 | 0.14 | 0.46 | 0.15 | 0.14 | 0.99 | 0.93 | 1.02 |
| B9 | 0.68 | 0.23 | 0.1 | 0.62 | 0.23 | 0.12 | 1.09 | 0.99 | 0.84 |
| B10 | 1.95 | 1.93 | 1.85 | 1.88 | 1.52 | 0.84 | 1.04 | 1.27 | 2.2 |
| B11 | 0.58 | 0.18 | 0.12 | 0.49 | 0.18 | 0.11 | 1.19 | 1.03 | 1.14 |
| B12 | 0.74 | 0.25 | 0.09 | 0.89 | 0.26 | 0.12 | 0.83 | 0.96 | 0.78 |
